Data: patent US20140186357A1

Target: SUMO1 (construct transfected into HSW cells in Example 8) (human) (UniProt P63165)
Assay: cell-based or functional assay

UniProt P63165, sequence (P63165 2-97 limits assumed): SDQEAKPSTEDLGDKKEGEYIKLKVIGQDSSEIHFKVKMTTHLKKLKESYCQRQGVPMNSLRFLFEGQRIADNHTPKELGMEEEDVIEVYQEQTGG

Question: With “N-terminal deleted BACE1-CTF (BACE1 C-terminal fragment, residues 456-501) (peptide)” as the substance, how does the Aβ production (secreted Aβ levels by ELISA, HSW cells) read?
Answer: The Aβ production (secreted Aβ levels by ELISA, HSW cells) was 25 % reduction.
